US20230295293A1, “BINDING MOLECULES AGAINST FRa” (AstraZeneca AB, priority 2022, published 2023)

What was measured:
[1] = target: Cyno FRα ECD-Avi-His (cynomolgus monkey); assay: HTRF antigen binding assay; hybridoma supernatant at 25%, 1 nM biotinylated antigen
[2] = target: Human FRα ECD-Avi-His (human); assay: as above
Human FRα ECD-Avi-His (human), sequence (chain, as listed by the source limits assumed): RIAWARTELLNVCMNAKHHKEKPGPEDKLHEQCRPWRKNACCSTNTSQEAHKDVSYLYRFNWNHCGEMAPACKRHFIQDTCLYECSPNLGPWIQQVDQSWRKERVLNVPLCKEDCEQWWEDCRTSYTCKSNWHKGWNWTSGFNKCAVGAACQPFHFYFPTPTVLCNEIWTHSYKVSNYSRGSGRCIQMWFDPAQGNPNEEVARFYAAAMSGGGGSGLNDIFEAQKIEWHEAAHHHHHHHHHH

Cyno FRα ECD-Avi-His (cynomolgus monkey), sequence (chain, as listed by the source limits assumed): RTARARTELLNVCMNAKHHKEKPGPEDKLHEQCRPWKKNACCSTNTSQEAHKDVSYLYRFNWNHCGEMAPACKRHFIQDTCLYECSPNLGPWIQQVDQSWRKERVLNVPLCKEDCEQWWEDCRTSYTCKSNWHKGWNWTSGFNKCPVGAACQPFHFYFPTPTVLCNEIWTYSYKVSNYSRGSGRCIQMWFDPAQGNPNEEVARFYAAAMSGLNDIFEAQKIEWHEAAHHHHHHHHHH

% Delta F [1]	% Delta F [2]	Binder
214 % Delta F	271 % Delta F	AB1370026 (hybridoma IgG) (antibody, V domains shown) VH: EVQLVESGGGLVKPGGSLRLSCAASGFTFSSYAMSWVRQAPGKGLEWVSSISSGRSYIYYADSVKGRFTISRDNAKNSLYLKMNSLRDEDTAVYYCAREMQQLALDYWGQGTLVTVSS VL: DIQMTQSPSSLSASVGDRVTITCRASQGISNFLAWFQQAPGKAPKSLIYAASSLQSGVPSKFSGSGSGTDFTLTISSLQPEDFATYYCQQYNSYPFTFGQGTKLEIK
85.2 % Delta F	140 % Delta F	AB1370083 (hybridoma IgG) (antibody, V domains shown) VH: EVQLVESGGGLVKPGGSLRLSCAASGFTFSSYNMNWVRQAPGKGLEWVSSISSGSSYIYYADSMKGRFTISRDNAKNSLFLQMNSLRAEDTAVYYCARGMTTLTFDYWGQGTLVTVSS VL: DIQMTQSPSSLSASVGDRVTITCRASQGISTFLAWFQQKPGKAPKSLIYAASSLQSGVPSKFSGSGSETDFTLTISSLQPEDFATYYCQQYISYPLTFGGGTKVEIK
85.3 % Delta F	126 % Delta F	AB1370095 (hybridoma IgG) (antibody, V domains shown) VH: EVQLVESGGGLVKPGGSLRLSCAASGFTFSSYSMNWVRQAPGKGLEWVSSISSRSSYVYYADSVKGRFTISRDNAKNSLYLQMNSLRAEDTAVYYCARGMTTLTFDYWGQGTLVTVSS VL: DIQMTQSPSSLSASVGDRVTITCRASQGISSFLAWFQQKPGKAPKSLIYAASSLQSGVPSKFSGSGSGTDFTLTISSLQPEDFATYYCQQYNSYPLTFGGGTKVEIK
141 % Delta F	225 % Delta F	AB1370035 (hybridoma IgG) (antibody, V domains shown) VH: QVQLQQSGPGLVKPSQTLSLTCAISGDSVSSNSAAWNWIRQSPSRGLEWLGRTYYRSNWYNDYTLSVKSRITVNPDTSKNQFSLQLNSVTPEDTAVYYCVRGVGRFDSWGQGTLVTVSS VL: DIQMTQSPSTLSASVGDRVIITCRASQSISSWLAWYQQKPGKAPKLLIYKASSLESGVPSRFSGSGSGTEFTLTITSLQPDDFASYYCQEYKTYSIFTFGPGTKVDIK
